According to paper PMC2138045:
Values joined by “and” are separate entries in the source; they are usually repeats but may differ in a detail not shown here. Equal entries are not always repeated.

Assays:
[1] = target: His-tagged kelch BTB domain (his:BTB) (Drosophila); assay: dynamic light scattering
[2] = target: His-tagged kelch BTB domain (his:BTB) (Drosophila); assay: SEC
[3] = target: His-tagged kelch BTBIVR (his:BTBIVR) (Drosophila); assay: SEC

Substance	stoichiometry N [1]	stoichiometry N [2]	stoichiometry N [3]
His-tagged kelch BTB domain (his:BTB) (domain or fragment)	2	2 and 4	–
His-tagged kelch BTBIVR (his:BTBIVR) (domain or fragment)	–	–	2
